Measured values reported in patent US7049398B1, “Melanocortin metallopeptide constructs, combinatorial libraries and applications” (Palatin Technologies, Inc., priority 1999, dated 2006).
Where no end group is shown, it is not given here. [ ]: non-standard residue; d: D form. The star is where a group is joined. Phe(2,4-Cl2) = N[C@@H](Cc1ccc(Cl)cc1Cl)C(=O)O; Phe(2-Cl) = N[C@@H](Cc1ccccc1Cl)C(=O)O; Phe(4-F) = N[C@@H](Cc1ccc(F)cc1)C(=O)O; 2Nal = N[C@@H](Cc1ccc2ccccc2c1)C(=O)O; Hydrocinnamoyl = O=C(CCc1ccccc1)*; hPhe = N[C@@H](CCc1ccccc1)C(=O)O; Tic = O=C(O)[C@@H]1Cc2ccccc2CN1; Aic = NC1(C(=O)O)Cc2ccccc2C1; Phg = N[C@H](C(=O)O)c1ccccc1; Tle = CC(C)(C)[C@H](N)C(=O)O; 4Abz = Nc1ccc(C(=O)O)cc1; Ac6c = NC1(C(=O)O)CCCCC1; Heptanoyl = CCCCCCC(=O)*; Nle = CCCC[C@H](N)C(=O)O; Ac3c = NC1(C(=O)O)CC1; Inp = O=C(O)C1CCNCC1; Tfa = O=C(C(F)(F)F)*; Bn = c1ccc(C*)cc1; βAla = NCCC(=O)O

What was measured:
hMC4-R = molecular target: T1, hMC4-R (Homo sapiens, UniProt P32245); assay: Competitive inhibition binding assay, 125I-NDP-alpha-MSH, hMC4-R membranes; conditions: 0.4 nM 125I-NDP-alpha-MSH
T1 construct: expressed in transfected cells; host or cells: 293 cells
T1 sequence (P32245 whole entry): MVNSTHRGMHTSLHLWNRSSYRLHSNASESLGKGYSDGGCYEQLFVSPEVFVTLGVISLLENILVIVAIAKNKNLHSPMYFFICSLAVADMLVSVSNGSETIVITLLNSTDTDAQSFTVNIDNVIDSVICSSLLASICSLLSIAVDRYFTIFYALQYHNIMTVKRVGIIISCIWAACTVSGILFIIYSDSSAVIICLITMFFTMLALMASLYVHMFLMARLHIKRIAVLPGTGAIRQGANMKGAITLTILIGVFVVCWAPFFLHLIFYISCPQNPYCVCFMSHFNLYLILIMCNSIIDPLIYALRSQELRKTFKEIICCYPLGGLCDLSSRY
Experimental: (§1) Representative Peptides of this Invention. Representative peptides of this invention were made using library and synthesis methods described herein, and selected peptides were tested using a binding assay. […] The peptides were synthesized using conventional peptide synthesis methods, and were complexed with rhenium using the methods described herein.
(§2) The competitive inhibition binding assay was conducted using membranes prepared from hMC4-R and B-16 mouse melanoma cells (containing MC1-R) using 0.4 nM ^125I-NDP-alpha-MSH (New England Nuclear, Boston, Mass., USA) in 50 mM HEPES buffer containing 1 mM MgCl2, 2 mM CaCl2, and 5 mM KCl, at pH 7.2. The assay tube also contained a chosen concentration of the test peptide of this invention, complexed to a rhenium metal ion as indicated, for determining its efficacy in inhibiting the binding of ^125I-NDP-alpha-MSH to its receptor. Non-specific binding was measured by complete inhibition of binding of ^125I-NDP-alpha-MSH in the assay with the presence of 1 μM alpha-MSH. Incubation was for 90 minutes at room temperature, after which the assay mixture was filtered and the membranes washed three times with ice cold buffer. The filter was dried and counted in a gamma counter for remaining radioactivity bound to the membranes. 100% specific binding was defined as the difference in radioactivity (cpm) bound to cell membranes in the absence and presence of 1 μM alpha-MSH. The cpm obtained in presence of test compounds were normalized with respect to 100% specific binding to determine the percent inhibition of ^125I-NDP-alpha MSH binding. […]

[1] = molecular target: T2, MC1-R (B-16 mouse melanoma cells) (Mus musculus, UniProt Q01727); assay: Competitive inhibition binding assay, 125I-NDP-alpha-MSH, B-16 mouse melanoma cell membranes; conditions: 0.4 nM 125I-NDP-alpha-MSH
T2 construct: B-16 mouse melanoma cells (containing MC1-R); endogenous in cells; host or cells: B-16 mouse melanoma cells
T2 sequence (Q01727 whole entry): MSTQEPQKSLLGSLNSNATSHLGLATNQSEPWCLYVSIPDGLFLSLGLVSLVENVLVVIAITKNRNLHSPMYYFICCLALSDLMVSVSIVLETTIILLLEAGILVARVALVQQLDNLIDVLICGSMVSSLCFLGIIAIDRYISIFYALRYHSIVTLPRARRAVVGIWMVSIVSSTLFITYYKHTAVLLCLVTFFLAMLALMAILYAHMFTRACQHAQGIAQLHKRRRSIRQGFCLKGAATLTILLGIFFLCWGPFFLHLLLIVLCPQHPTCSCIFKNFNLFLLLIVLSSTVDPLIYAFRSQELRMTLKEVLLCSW
Experimental: as §1, §2

[2] = Conc. cut off 1 μM, hMC4-R membranes
[3] = Conc. cut off 1 μM, B-16 mouse melanoma cell membranes
[4] = Conc. cut off 10 μM, hMC4-R membranes
[5] = Conc. cut off 10 μM, B-16 mouse melanoma cell membranes
[6] = Conc. cut off 1 μM test peptide
[7] = Conc. cut off 10 μM test peptide

| Substance | % Inhibition MC4-R (hMC4-R; [2]) [%] | % Inhibition MC1-R (B-16) [1, 3] [%] | % Inhibition MC4-R (hMC4-R; [4]) [%] | % Inhibition MC1-R (B-16) [1, 5] [%] | % Inhibition MC4-R (hMC4-R; [6]) [%] | % Inhibition MC1-R (B-16) [1, 6] [%] | further results |
| --- | --- | --- | --- | --- | --- | --- | --- |
| PL-808 (Ac-HWCW-NH2; also: ReO[V] metal complex) | 0 | −3 |  |  |  |  |  |
| PL-809 (Ac-H[hPhe]CW-NH2; also: ReO[V] complex) | 0 | −4 |  |  |  |  |  |
| PL-810 (Ac-H[2Nal]CW-NH2; also: ReO[V] complex) | −1 | −2 |  |  |  |  |  |
| PL-811 (Ac-H[Phg]CW-NH2; also: ReO[V] complex) | 0 | −5 |  |  |  |  |  |
| PL-814 (Ac-HFCW-NH2; also: ReO[V] metal complex) | 0 | −4 |  |  |  |  |  |
| PL-839 (Ac-HFWC-NH2; also: ReO[V] metal complex) |  |  | 9 | 12 |  |  |  |
| PL-844 (Ac-FGCW-NH2; also: ReO[V] metal complex) |  |  | 2 | 10 |  |  |  |
| PL-847 (Ac-FHGCW-NH2; also: ReO[V] metal complex) |  |  | 6 | −6 |  |  |  |
| PL-1073 (Ac-A[Tle]CW-NH2; also: ReO complex) | 13 | −6 |  |  |  |  |  |
| PL-1089 (Ac-A[Phe(4-F)]CW-NH2; also: ReO complex) |  |  | 10 | 0 |  |  |  |
| PL-1090 (Ac-AXCW-NH2; not fully specified (residue 2); printed as Ac-L-Ala-L-Tyr(3′,5′ di-I, 4′-Ac)-L-Cys-L-Trp-NH2; also: ReO[V] metal complex) | 10 | 2 |  |  |  |  |  |
| PL-1091 ([βAla]GC(Bn)CW-NH2; also: ReO complex) | 13 | −1 |  |  |  |  |  |
| PL-1092 ([βAla]GK(Tfa)CW-NH2; also: ReO complex) | 4 | 4 |  |  |  |  |  |
| PL-1093 ([βAla]G[Phe(2,4-Cl2)]CW-NH2; also: ReO complex) | 2 | 2 |  |  |  |  |  |
| PL-1094 ([βAla]G[Phe(2-Cl)]CW-NH2; also: ReO complex) |  |  | 19 | 57 |  |  |  |
| PL-1095 ([βAla]G[Lys(Z)]CW-NH2; also: ReO complex) |  |  | 8 | 3 |  |  |  |
| PL-1096 ([βAla]GLCW-NH2; also: ReO complex) |  |  | 12 | 6 |  |  |  |
| PL-1110 (KHFCW-NH2; also: ReO complex) |  |  | 36 | 11 |  |  |  |
| PL-1112 (HFCW-NH2; also: ReO complex) |  |  | 8 | 0 |  |  |  |
| PL-1114 ([βAla]HFCW-NH2; also: ReO[V] metal complex) |  |  | 10 | 2 |  |  |  |

| Substance | % Inhibition MC4-R (hMC4-R; [2]) [%] | % Inhibition MC1-R (B-16) [1, 3] [%] | % Inhibition MC4-R (hMC4-R; [4]) [%] | % Inhibition MC1-R (B-16) [1, 5] [%] | % Inhibition MC4-R (hMC4-R; [6]) [%] | % Inhibition MC1-R (B-16) [1, 6] [%] | further results |
| --- | --- | --- | --- | --- | --- | --- | --- |
| PL-1299 (Heptanoyl-[βAla]RCW-NH2; also: ReO[V] metal complex) | 19 | 1 |  |  |  |  |  |
| PL-1300 (Heptanoyl-ARCW-NH2; also: ReO[V] metal complex) | 22 | 62 |  |  |  |  |  |
| PL-1309 (Heptanoyl-CRCW-NH2; cysteine pairing not given here; also: ReO[V] metal complex) | 10 | 9 |  |  |  |  |  |
| PL-1315 (Ac-RW[Nle]CF-NH2; also: ReO[V] metal complex) |  |  | 70 | 69 |  |  |  |
| PL-1320 (Hydrocinnamoyl-RWC[Nle]-NH2; also: ReO[V] metal complex) |  |  | 94 | 96 |  |  |  |
| PL-1334 (Hydrocinnamoyl-[Nle]WCR-NH2; also: ReO[V] metal complex) | 12 | 26 |  |  |  |  |  |
| PL-1344 (Heptanoyl-RFHCW-NH2; also: ReO[V] metal complex) |  |  | 81 | 89 |  |  |  |
| PL-1348 (Ac-RHFCW-NH2; also: ReO[V] metal complex) |  |  | 51 | 57 |  |  |  |
| PL-1360 (Ac-RWFCH-NH2; also: ReO[V] metal complex) |  |  | 62 | 57 |  |  |  |
| PL-1364 (Ac-WFHCR-NH2; also: ReO[V] metal complex) |  |  | 72 | 74 |  |  |  |
| PL-1366 (Ac-HFWCR-NH2; also: ReO[V] metal complex) |  |  | 64 | 78 |  |  |  |
| PL-1394 (Ac-HRWCF-NH2; also: ReO[V] metal complex) | 0 | 27 | 59 | 84 |  |  |  |
| PL-1405 (Heptanoyl-FHCW-NH2; also: ReO[V] metal complex) | 27 | 20 |  |  |  |  |  |
| PL-1406 (Heptanoyl-RFHCW-NH2; also: ReO[V] metal complex) | 42 | 32 |  |  |  |  |  |
| PL-1412 (FHCW-NH2; also: ReO[V] metal complex) | 54 | 43 |  |  |  |  |  |
| PL-1416 (Ac-[Nle]AHFRCW-NH2; also: ReO[V] metal complex) | 35 | 85 |  |  |  |  |  |
| PL-1450 (Ac-[Nle]AHFRCW-NH2; also: ReO[V] metal complex) |  |  |  |  | 66 | 73 |  |
| PL-1478 (Ac-RFFCS-NH2; also: ReO[V] metal complex) |  |  |  |  | 21 | 28 |  |
| PL-1504 (Ac-RF[2Nal]NCF-NH2; also: ReO[V] complex) |  |  |  |  | 21 | 36 |  |
| PL-1505 (Ac-RF[2Nal]NCF-NH2; also: ReO[V] complex) |  |  |  |  | 29 | 45 |  |

| Substance | % Inhibition MC4-R (hMC4-R; [2]) [%] | % Inhibition MC1-R (B-16) [1, 3] [%] | % Inhibition MC4-R (hMC4-R; [4]) [%] | % Inhibition MC1-R (B-16) [1, 5] [%] | % Inhibition MC4-R (hMC4-R; [6]) [%] | % Inhibition MC1-R (B-16) [1, 6] [%] | further results |
| --- | --- | --- | --- | --- | --- | --- | --- |
| PL-1507 (Ac-RFFNCF-NH2; also: ReO[V] metal complex) |  |  |  |  | 22 | 20 |  |
| PL-1509 (Ac-RFCFNAF-NH2; also: ReO[V] metal complex) |  |  |  |  | 30 | 19 |  |
| PL-1510 (Ac-RFFCNAF-NH2; also: ReO[V] metal complex) |  |  |  |  | 31 | 21 |  |
| PL-1511 (Ac-RFFNCAF-NH2; also: ReO[V] metal complex) |  |  |  |  | 26 | 21 |  |
| PL-1512 (Ac-RFFNACF-NH2; also: ReO[V] metal complex) |  |  |  |  | 24 | 20 |  |
| PL-1513 (Ac-RFFNFC-NH2; also: ReO[V] metal complex) |  |  |  |  | 18 | 23 |  |
| PL-1514 (Ac-RFFNFC-NH2; also: ReO[V] metal complex) |  |  |  |  | 30 | 28 |  |
| PL-1595 (Ac-[Nle]AH[Aic]RCW-NH2; also: ReO[V] metal complex) |  |  |  |  | 3 | 60 |  |
| PL-1606 (Ac-[Nle]RA[Aic]CW-NH2; also: ReO[V] metal complex) |  |  |  |  | 63 | 44 |  |
| PL-1621 (Ac-[Nle]AH[Ac6c]RCW-NH2; also: ReO[V] complex) |  |  |  |  | 34 | 36 |  |
| PL-1635 (Ac-[Nle]RA[Ac3c]CW-NH2; also: ReO[V] complex) |  |  |  |  | 43 | 14 |  |
| PL-1636 (Ac-[Nle]AH[Ac3c]RCW-NH2; also: ReO[V] complex) |  |  |  |  | 38 | 20 |  |
| PL-1649 (Ac-HGGCW-NH2; also: ReO[V] metal complex) |  |  |  |  |  |  | % Inhibition MC4-R (hMC4-R; [7]): 62%; % Inhibition MC1-R (B-16) [1, 7]: 19% |
| PL-1655 (Ac-HFRCW-NH2; also: ReO[V] metal complex) |  |  |  |  |  |  | % Inhibition MC4-R (hMC4-R; [7]): 51%; % Inhibition MC1-R (B-16) [1, 7]: 45% |
| PL-1859 (Ac-FFC[Tic]K-NH2; also: ReO[V] complex) |  |  |  |  | −8 | 9 |  |
| PL-1860 (Ac-FFC[Inp]K-NH2; also: ReO[V] complex) |  |  |  |  | 0 | 6 |  |
| PL-1861 (Ac-FFC[4Abz]K-NH2; also: ReO[V] complex) |  |  |  |  | −14 | 0 |  |
| PL-1862 (Ac-FFC[3‑Abz]K-NH2; also: ReO[V] complex) |  |  |  |  | −7 | 17 |  |
